Reference: patent US20250243263A1 (VOYAGER THERAPEUTICS, published 2025)
Where no end group is shown, it is not given here. [ ]: non-standard residue; d: D form. pT = C[C@@H](OP(=O)(O)O)[C@H](N)C(=O)O

T1: AT270 peptide (pT181; Tau172-186) (human)
T1 peptide: PAKTPPAPK[pT]PPSSG

T2: AT8 peptide (amino acids 195-215 of tau) (human, phospho-peptide, phosphorylated sites not stated in the example; immobilized on streptavidin tips)
T2 peptide: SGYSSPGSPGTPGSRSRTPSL

T3: Tau(pS404) peptide (human, phosphoserine at S404 of tau (peptide position 18))
T3 construct: also called TauS404 peptide; TauS404
T3 peptide: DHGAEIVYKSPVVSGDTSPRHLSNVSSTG

B1: VY020 (antibody, V domains shown)
VH: EVQLVESGGGLVQPGGSLRLSCAASGFTFSSYSMNWVRQAPGKGLEWISYISSSNSTIKYADSVKGRFTISRDNAKNSLYLQMNSLRDEDTAVYYCARRSLGDYWGQGTLVIVSS
VL: EIVLTQSPATLSLSPGERATLSCRASQSVSSYLAWYLQKPGQAPRLLIYDVSNRATGIPARFSGSGSGTDFTLTISRLEPEDFAVYYCQQRRNWPYTFGQGTKLEIK
B2: VY003 (antibody, V domains shown)
VH: EVQMVESGGGLVQPGGSLTLSCAASGFTFSSYRMNWVRQAPGKGLEWVSYISSSRSAIYYADSVKGRFTISRDNAKNSLYLQMNSLRDEDTAVYYCATLGIGYWGQGTLVTVSS
VL: DIVMTQTPLSSPVTLGQPASISCRSSQSLVHSDGNTYLSWLQQRPGQPPRLLIYKISNRFSGVPDRFSGSGAGTDFTLKITRVEAEDVGIYYCMQVTQFPRTFGQGTKVEIR
B3: VY014 (antibody, V domains shown)
VH: EVQLVESGGGLVQPGGSLRLSCAASGFTFNNYDMHWVRQAAGKGLEWVSTIGAAGDTYYPGSVKGRFIISRENAKNSLYLQMNSLRAGDTAVYYCARAGETLEGATIGYYYGMDVWGQGTTVTVSS
VL: DILMTQSPLSLPVTPGEPASISCRSSQSLLHSNGYNYLDWYLQKPGQSPQLLIYLGSNRASGVPDRFSGSGSGTDFTLKFSRVEAEDVGLYYCMQALQIPLTFGGGTKVEIK

Key:
[1] = target: T4, Tau191-214 phospho-peptide (pS199) (human, phosphoserine at S199 of tau (peptide position 9); SCBio-4PEG label); assay: BLI
T4 construct: also called pS199 peptide

[2] = target: T1, AT270 peptide (pT181; Tau172-186); assay: one point ELISA
[3] = target: T2, AT8 peptide (amino acids 195-215 of tau); assay: BLI (Octet), phospho-peptide on streptavidin tips
Method: Briefly, phospho-peptides were immobilized on streptavidin biosensor tips and the binding ability of each antibody was assessed using an eight-point concentration gradient.

[4] = target: T5, iPHF (UniProt P10636-8 2-441, limits assumed); assay: BLI (Octet), antibody on biosensor tip, iPHF in solution
T5 construct: also called iPHF tau
Method: Anti-human tau antibodies were assessed for affinity for iPHF by Octet (ForteBio, Menlo Park, CA) analysis. A set of recombinant human IgG1 antibodies were prepared with clone-specific variable domain pairs selected from those presented in Table 1 and human IgG1 constant domains. Candidate antibodies were immobilized on biosensor tips (ForteBio) in kinetic buffer (ForteBio). Biosensor tips were then washed before introduction of a solution of iPHF in kinetic buffer for analysis of association and dissociation with candidate antibodies.

[5] = target: T4, Tau191-214 phospho-peptide (pS199); assay: one point ELISA
From the text: (§1) One-point ELISA was used to determine differential binding based on the individual phosphorylation patterns of each peptide. OD values (450 nm) were collected (as shown in Table 13), where a stronger positive signal is shown as a higher OD value, which is indicative of increased binding.

[6] = target: T6, pS199-old (SCBio-4PEG-Peptide, Tau191-214) (human, phosphoserine at S199 of tau by the row label; SCBio-4PEG label); assay: one point ELISA
T6 construct: The suffix -old is not explained
From the text: as §1

[7] = target: Tau191-214 phospho-peptide (pS202) (human, phosphoserine at S202 of tau (peptide position 12); SCBio-4PEG label); assay: one point ELISA
From the text: as §1

[8] = target: Tau191-214 phospho-peptide (pT205) (human, phosphothreonine at T205 of tau (peptide position 15); SCBio-4PEG label); assay: one point ELISA
From the text: as §1

[9] = target: Tau191-214 phospho-peptide (pS199/pS202) (human, phosphoserine at S199 and S202 of tau (peptide positions 9, 12); SCBio-4PEG label); assay: one point ELISA
From the text: as §1

[10] = target: Tau191-214 phospho-peptide (pS199/pT205) (human, phosphoserine at S199 and phosphothreonine at T205 of tau (peptide positions 9, 15); SCBio-4PEG label); assay: one point ELISA
From the text: as §1

[11] = target: enriched paired helical filament tau protein (ePHF; sarkosyl insoluble tau) (human, UniProt P10636 2-758); assay: direct ELISA, ePHF coated
Method: (§2) A set of recombinant human IgG1 antibodies were prepared with clone-specific variable domain pairs selected from those presented in Table 1 and human IgG1 constant domains. These candidate antibodies were analyzed for binding to ePHF and specificity for ePHF over wild type tau by direct ELISA.
(§3) For direct ePHF and wildtype tau ELISA, plates were first coated with ePHF or wild type tau. Antigen solutions were prepared in PBS and 50 μL were pipetted into each well. Plates were covered and incubated for one hour at 37° C. or overnight at 4° C. Plates were then washed and blocked by addition of 150 μl of blocking buffer to each well and incubated one hour at room temperature. Plates were then washed before addition of serially diluted candidate antibody samples prepared in blocking buffer. Detection of candidate antibody binding was carried out by washing plates and adding a solution of enzyme-labeled secondary antibody in blocking buffer to each well. Secondary antibody binding was detected by addition of substrate and spectrophotometric analysis of resulting reaction product.

[12] = target: T7, wild type tau (human, UniProt P10636 2-758); assay: direct ELISA, wild type tau coated
T7 construct: also called WT
Method: as §2, §3

[13] = target: T3, Tau(pS404) peptide; assay: competitive ELISA on TauS404 peptide, competitor AC04 peptide

T5 sequence (P10636 other isoform, or with tags, fused parts or gaps limits assumed): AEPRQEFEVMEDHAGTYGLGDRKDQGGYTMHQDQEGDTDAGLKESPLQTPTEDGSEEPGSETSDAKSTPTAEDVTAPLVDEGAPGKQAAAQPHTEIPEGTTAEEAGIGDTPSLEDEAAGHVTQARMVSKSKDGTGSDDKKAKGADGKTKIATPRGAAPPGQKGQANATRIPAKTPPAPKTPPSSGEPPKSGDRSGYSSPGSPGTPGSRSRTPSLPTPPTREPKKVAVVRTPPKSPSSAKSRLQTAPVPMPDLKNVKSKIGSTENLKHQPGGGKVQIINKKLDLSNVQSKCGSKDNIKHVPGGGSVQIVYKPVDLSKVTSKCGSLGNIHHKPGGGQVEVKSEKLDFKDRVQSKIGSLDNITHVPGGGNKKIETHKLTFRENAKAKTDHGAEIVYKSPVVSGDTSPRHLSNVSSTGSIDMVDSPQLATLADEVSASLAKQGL
Sequence of enriched paired helical filament tau protein (ePHF; sarkosyl insoluble tau) (P10636 other isoform, or with tags, fused parts or gaps limits assumed): as above
T4 sequence (peptide, as listed by the source): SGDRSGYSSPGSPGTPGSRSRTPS
T7 sequence (P10636 other isoform, or with tags, fused parts or gaps limits assumed): as the sequence (P10636 other isoform, or with tags, fused parts or gaps limits assumed) above

Binder	binding result [1]	binding result [2]	binding result [3]	Kd [4]	OD (450 nm) [5]	OD (450 nm) [6]	OD (450 nm) [7]	OD (450 nm) [8]	OD (450 nm) [9]	OD (450 nm) [10]	EC50 [11]	Kd [3]	EC50 [12]	binding result [13]
B1	no binding	no binding	no binding	2.6 nM										
B2				4.6 nM	0.065 OD450	0.062 OD450	0.065 OD450	0.06 OD450	0.082 OD450	0.119 OD450	0.06 nM	0.0124 nM		
B3				5.3 nM							6.23 nM		0.04 nM	binds
